Test results from patent publication US9675625B2, “Medicament comprising recombinant antibody against chemokine receptor CCR4” (KYOWA HAKKO KIRIN CO., LTD., priority 2003, dated 2017).

System: CCR4/EL4 cells
Assay: antitumor effect of KM 2760 and IFN-α in combination, CCR4/EL4 cells grafted into tail vein of C57BL/6 mice, liver weight ratio
Format: in vivo, C57BL/6 mouse
Experimental: CCR4/EL4 cells were suspended in RPMI 1640 medium (manufactured by Gibco BRL) at a concentration of 5×10^5 cells/mL, and 100 μl of the suspension was grafted into the tail vein of C57BL/6 mice (CLEA Japan Inc., male, 8 weeks old). Further, mice were grouped into A to D, and each of the agents A to D were administered to the mice. Incidentally, the day on which the tumor was grafted was defined as Day 0.
B. Group of administering IFN-α alone: 5×10^4 units of IFN-α (Universal type I interferon, manufactured by PBL Biomedical Laboratories) was intravenously administered per mouse once a day for 5 days from Day 1 to Day 5.
The experiment was conducted with group A consisting of 7 mice and groups B, C and D each consisting of 6 mice. […] The weight of all mice was measured on Day 14. After etherization and exsanguination, mice were brought to euthanasia by dislocation of the cervical spine. The liver was extracted, and the weight of the liver was then measured. A ratio of the liver weight to the weight of each individual (hereinafter referred to as a weight ration of a liver) was calculated by percentage.
The antitumor effect was evaluated by comparing the liver weight ratio (average value of six mice) of untreated healthy mice measured simultaneously and the liver weight ratio of each group increased by metastasis of tumor cells.
Further, the residual amount of tumor cells in the liver in each group was calculated as a T/C value using the following formula. T/C=(average values of a weight ration of a liver of each group−average value of a weight ration of a liver of an untreated mouse)/(average value of a weight ration of a liver of a negative control group−average value of a weight ration of a liver of an untreated mouse) (Formula 4)

B1: KM 2760: anti-CCR4 human chimeric antibody KM 2760 (FERM BP-7054, WO 01/64754) (antibody, V domains shown)
VH: EVQLVESGGDLMKPGGSLKISCAASGFIFSNYGMSWVRQTPDMRLEWVATISSASTYSYYPDSVKGRFTISRDNAENSLYLQMNSLRSEDTGIYYCGRHSDGNFAFGYWGRGTLVTVSA
VL: DVLMTQTPLSLPVSLGDQASISCRSSRNIVHINGDTYLEWYLQRPGQSPKLLIYKVSNRFSGVPDRFSGSGSGTDFTLKISRVEAEDLGVYYCFQGSLLPWTFGGGTRLEIRR
Day 14, KM 2760 0.5 μg per mouse i.v. Day 1 and Day 5, IFN-α 5×10^4 units per mouse i.v. Day 1 to Day 5
  T/C value (residual amount of tumor cells in the liver, from liver weight ratio): 0.52
FIG. 7, Day 14
  antitumor effect compared to untreated group A (liver weight ratio): low
